Like-named read-outs stand apart in the source and are kept apart here.
Experiments:
[1] = molecular target: T1, MHC class I allele B*0702 monomer (human, biotinylated, bound to streptavidin-coated plate); experiment: iTopia, multiparametric iScore
T1 construct: also called B7; HLA-B7
Method in brief: (§1)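 The iScore combines the binding, off-rate and affinity results into one overall binding-quality value for each 9-mer. These measurements were made by ELISA in duplicate on MHC-coated plates, with allele-specific positive controls.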

[2] = molecular target: T2, MHC class I allele A*0101 monomer (human, biotinylated, bound to streptavidin-coated plate); experiment: iTopia, multiparametric iScore
T2 construct: placeholder peptide and b2M removed, then reconstituted with test peptide and fresh b2M; also called A1; HLA-A1
Method in brief: as §1

[3] = molecular target: T3, MHC class I allele A*0201 monomer (human, biotinylated, bound to streptavidin-coated plate); experiment: iTopia, multiparametric iScore
T3 construct: also called A2; HLA-A2
Method in brief: as §1

[4] = molecular target: T4, MHC class I allele A*0301 monomer (human, biotinylated, bound to streptavidin-coated plate); experiment: iTopia, multiparametric iScore
T4 construct: also called A3; HLA-A3
Method in brief: as §1

[5] = molecular target: T2, MHC class I allele A*0101 monomer; experiment: iTopia, multiparametric iScore; remark: listed apart in the source
Procedure: (§2) The 9 mers were tested for Peptide Binding, Off Rate and Affinity using iTopia Epitope Discovery System in accordance with the manufacturer's instructions. Briefly, 96 well microtitre plates coated with MHC molecules representing different MHC alleles are used to identify candidate peptides. […] Determinations are performed in duplicate using an ELISA plate reader and included allele specific positive controls.
(§3) Finally, multiparametric analysis is performed on the results from these assays and an iScore is generated. The iScore represents a measure of the overall quality of peptide-MHC binding, enabling candidate peptides to be ranked in order of binding quality and allowing rational prioritisation of peptides for functional cellular follow-up studies.

[6] = molecular target: T5, MHC class I molecule HLA-A*0201 (iTopia plate-bound monomer) (biotin (bound to streptavidin-coated plate)); experiment: iTopia off-rate assay, 37 C; fit R^2 0.94
T5 construct: also called A2
Procedure: as §2
(§4) A one-phase exponential decay curve, with a plateau given equal to 0, was generated using GraphPad Prism® software, which calculated the t1/2 and goodness-of-fit, as measured by r², for each peptide.

[7] = molecular target: T5, MHC class I molecule HLA-A*0201 (iTopia …); experiment: iTopia off-rate assay, 37 C; fit R^2 0.63
Procedure: as §2, §4

[8] = molecular target: T5, MHC class I molecule HLA-A*0201 (iTopia …); experiment: iTopia off-rate assay, 37 C; fit R^2 0.85
Procedure: as §2, §4

[9] = molecular target: T5, MHC class I molecule HLA-A*0201 (iTopia …); experiment: iTopia off-rate assay, 37 C; fit R^2 0.77
Procedure: as §2, §4

[10] = molecular target: T5, MHC class I molecule HLA-A*0201 (iTopia …); experiment: iTopia off-rate assay, 37 C; fit R^2 0.81
Procedure: as §2, §4

[11] = molecular target: T5, MHC class I molecule HLA-A*0201 (iTopia …); experiment: iTopia off-rate assay, 37 C; fit R^2 0.97
Procedure: as §2, §4

[12] = molecular target: T5, MHC class I molecule HLA-A*0201 (iTopia …); experiment: iTopia off-rate assay, 37 C; fit R^2 0.95
Procedure: as §2, §4

[13] = molecular target: T5, MHC class I molecule HLA-A*0201 (iTopia …); experiment: iTopia off-rate assay, 37 C; fit R^2 0.91
Procedure: as §2, §4

[14] = molecular target: T1, MHC class I allele B*0702 monomer; experiment: iTopia, multiparametric iScore; remark: listed apart in the source
Procedure: as §2, §3

[15] = molecular target: T3, MHC class I allele A*0201 monomer; experiment: iTopia, multiparametric iScore; remark: listed apart in the source
Procedure: as §2, §3

[16] = molecular target: T4, MHC class I allele A*0301 monomer; experiment: iTopia, multiparametric iScore; remark: listed apart in the source
Procedure: as §2, §3

[17] = molecular target: T5, MHC class I molecule HLA-A*0201 (iTopia …); experiment: iTopia off-rate assay, 37 C; fit R^2 0.89
Procedure: as §2, §4

[18] = molecular target: T5, MHC class I molecule HLA-A*0201 (iTopia …); experiment: iTopia off-rate assay, 37 C; fit R^2 0.84
Procedure: as §2, §4

[19] = molecular target: T5, MHC class I molecule HLA-A*0201 (iTopia …); experiment: iTopia off-rate assay, 37 C; fit R^2 0.98
Procedure: as §2, §4

[20] = molecular target: T6, MHC class I molecule A*0101 (biotin (bound via biotin to streptavidin-coated plates)); experiment: iTopia affinity assay (ED50), peptide titration on plate-bound MHC
T6 construct: also called A1; HLA-A1
Procedure: as §2
(§5) Dose-response curves of peptide binding to MHC were prepared by peptide titration to determine the ED50 measurement for each peptide. Values for the concentrations tested (in duplicate) were obtained as a percentage of the highest (9000×) concentration of the positive control peptide. A dose-response curve was generated using GraphPad Prism® curve fitting software, which automatically calculated the ED50 (in Molarity) for each peptide.

[21] = molecular target: T7, MHC class I molecule B*0702 (biotin (bound via biotin to streptavidin-coated plates)); experiment: as above
T7 construct: Methods name B*0702 as the allele used; also called B7; HLA-B7
Procedure: as §2, §5

[22] = molecular target: T8, MHC class I molecule A*0301 (biotin (bound via biotin to streptavidin-coated plates)); experiment: as above
T8 construct: also called A3; HLA-A3
Procedure: as §2, §5

[23] = molecular target: T9, MHC class I molecule A*0201 (biotin (bound via biotin to streptavidin-coated plates)); experiment: as above
T9 construct: also called A2; HLA-A2
Procedure: as §2, §5

[24] = molecular target: T5, MHC class I molecule HLA-A*0201 (iTopia …); experiment: iTopia off-rate assay, 37 C; fit R^2 0.87
Procedure: as §2, §4

[25] = molecular target: T5, MHC class I molecule HLA-A*0201 (iTopia …); experiment: iTopia off-rate assay, 37 C; fit R^2 0.9
Procedure: as §2, §4

B1: 5T4 9-mer peptide 161 (peptide)
peptide: LTCAYPEKM
In the case of B1, the iScore [1] is reported as 0, the iScore [2] is reported as 0.139 and the iScore [3] is reported as 0.158. The iScore [4] was 0 and the iScore [5] was 0.139.

B2: 5T4 9-mer peptide 14 GWVSSSSPT (peptide)
peptide: GWVSSSSPT
notes: also called Peptide No 14
In the case of B2, the t½ half life [6] is reported as 1 h.

B3: 5T4 9-mer peptide 87 SPLVELILN (peptide)
peptide: SPLVELILN
notes: also called Peptide No 87
B3 showed a t½ half life [7] of 2.4 h.

B4: 5T4 9-mer peptide 79 LSPFAFSGS (peptide)
peptide: LSPFAFSGS
notes: also called Peptide No 79
Binder B4 has a t½ half life [8] of 0.4 h.

B5: 5T4 9-mer peptide 56 FARRPPLAE (peptide)
peptide: FARRPPLAE
notes: also called Peptide No 56
B5 showed a t½ half life [6] of 0.3 h.

B6: 5T4 9-mer peptide 64 GSRLDEVRA (peptide)
peptide: GSRLDEVRA
notes: also called Peptide No 64
In the case of B6, the t½ half life [6] is reported as 1.9 h.

B7: 5T4 9-mer peptide 29 PLPDQCPAL (peptide)
peptide: PLPDQCPAL
notes: also called Peptide No 29
B7 was tested, and the t½ half life [9] was 2.8 h.

B8: 5T4 9-mer peptide 167 VLLELNSAD (peptide)
peptide: VLLELNSAD
notes: also called Peptide No 167
In the case of B8, the t½ half life [10] is reported as 0.8 h.

B9: 5T4 9-mer peptide 24 FLASAVSAQ (peptide)
peptide: FLASAVSAQ
notes: also called Peptide No 24
Work on B9 yielded a t½ half life [11] of 0.7 h.

B10: 5T4 9-mer peptide 108 LELASNHFL (peptide)
peptide: LELASNHFL
Binder B10 has a t½ half life [12] of 1.4 h.

B11: 5T4 9-mer peptide 192 KWMHNIRDA (peptide)
peptide: KWMHNIRDA
notes: also called Peptide No 192
Binder B11 has a t½ half life [8] of 1.4 h.

B12: 5T4 9-mer peptide 19 SASSFSSSA (peptide)
peptide: SASSFSSSA
notes: also called Peptide No 19
In the case of B12, the t½ half life [13] is reported as 0.2 h.

B13: 5T4 9-mer peptide 125 (peptide)
peptide: LTYVSFRNL
Work on B13 yielded an iScore [1] of 0.574, an iScore [2] of 0.522 and an iScore [3] of 1.11. The iScore [4] was 0.157, the iScore [14] was 0.574 and the iScore [5] was 0.522. For the same binder, the iScore [15] was 1.11 and the iScore [16] was 0.157.

B14: 5T4 9-mer peptide 26 AVSAQPPLP (peptide)
peptide: AVSAQPPLP
notes: also called Peptide No 26
Binder B14 has a t½ half life [17] of 1.7 h.

B15: 5T4 9-mer peptide 116 AQLPSLRHL (peptide)
peptide: AQLPSLRHL
B15 was tested, and the t½ half life [12] was 0.7 h.

B16: 5T4 9-mer peptide 43 (peptide)
peptide: VPTDLPAYV
B16 was tested, and the iScore [5] was 0.098.

B17: 5T4 9-mer peptide 70 EHLPSLRQL (peptide)
peptide: EHLPSLRQL
notes: also called Peptide No 70
B17 gave a t½ half life [18] of 1.4 h.

B18: 5T4 9-mer peptide 149 VCDCHMADM (peptide)
peptide: VCDCHMADM
notes: also called Peptide No 149
B18 was tested, and the t½ half life [8] was 1.4 h.

B19: 5T4 9-mer peptide 198 (peptide)
peptide: HMEGYHYRY
In the case of B19, the iScore [1] is reported as 0, the iScore [2] is reported as 0.357 and the iScore [3] is reported as 0.24. It also gave an iScore [4] of 0.189, an iScore [5] of 0.357 and an iScore [16] of 0.189.

B20: 5T4 9-mer peptide 166 NRVLLELNS (peptide)
peptide: NRVLLELNS
notes: also called Peptide No 166
B20 was tested, and the t½ half life [7] was 1.3 h.

B21: 5T4 9-mer peptide 46 AYVRNLFLT (peptide)
peptide: AYVRNLFLT
notes: also called Peptide No 46
B21 was tested, and the t½ half life [9] was 6.8 h.

B22: 5T4 9-mer peptide 22 SSAPFLASA (peptide)
peptide: SSAPFLASA
notes: also called Peptide No 22
B22 showed a t½ half life [19] of 1.3 h.

B23: 5T4 9-mer peptide 41 NLTEVPTDL (peptide)
peptide: NLTEVPTDL
notes: also called Peptide No 41
For B23, the t½ half life [19] was 1.4 h.

B24: 5T4 9-mer peptide 142 (peptide)
peptide: GLPHIRVFL
Binder B24 has an iScore [1] of 0.075, an iScore [2] of 0 and an iScore [3] of 1.89. The iScore [4] was 0.319, the iScore [15] was 1.39 and the iScore [16] was 0.319.

B25: 5T4 9 mer peptide 125 (LTYVSFRNL) (peptide)
peptide: LTYVSFRNL
B25 showed an EC50 [20] of 3000 nM, an EC50 [21] of 3000 nM and an EC50 [22] of 3000 nM. The EC50 [23] was 400 nM.

B26: 5T4 9-mer peptide 81 AFSGSNASV (peptide)
peptide: AFSGSNASV
notes: also called Peptide No 81
With B26 the t½ half life [12] was 0.7 h.

B27: 5T4 9-mer peptide 18 TSSASSFSS (peptide)
peptide: TSSASSFSS
notes: also called Peptide No 18
Binder B27 has a t½ half life [11] of 0.7 h.

B28: 5T4 9-mer peptide 78 ADLSPFAFS (peptide)
peptide: ADLSPFAFS
notes: it stands between 77 and 79; also called Peptide No 78
In the case of B28, the t½ half life [13] is reported as 2.6 h.

B29: 5T4 9-mer peptide 6 AGDGRLRLA (peptide)
peptide: AGDGRLRLA
notes: also called Peptide No 6
Work on B29 yielded a t½ half life [6] of 0.1 h.

B30: 5T4 9-mer peptide 32 PALCECSEA (peptide)
peptide: PALCECSEA
notes: also called Peptide No 32
Binder B30 has a t½ half life [10] of 2.2 h.

B31: 5T4 9-mer peptide 141 LQGLPHIRV (peptide)
peptide: LQGLPHIRV
notes: also called Peptide No 141
B31 was tested, and the t½ half life [24] was 1.1 h.

B32: 5T4 9-mer peptide 139 TLAELQGLP (peptide)
peptide: TLAELQGLP
B32 was tested, and the t½ half life [17] was 0.7 h.

B33: 5T4 9-mer peptide 109 (peptide)
peptide: LASNHFLYL
Binder B33 has an iScore [5] of 0.12, an iScore [15] of 0.337 and an iScore [16] of 0.224.

B34: 5T4 9 mer peptide 109 (LASNHFLYL) (peptide)
peptide: LASNHFLYL
Binder B34 has an EC50 [20] of 20000 nM, an EC50 [22] of 30000 nM and an EC50 [23] of 600 nM.

B35: 5T4 9-mer peptide 186 (peptide)
peptide: LLVLYLNRK
B35 showed an iScore [2] of 0, an iScore [3] of 0.386 and an iScore [4] of 0.372. For the same binder, the iScore [15] was 0.386 and the iScore [16] was 0.375.

B36: 5T4 9-mer peptide 96 QNRSFEGMV (peptide)
peptide: QNRSFEGMV
notes: also called Peptide No 96
B36 was tested, and the t½ half life [24] was 2.4 h.

B37: 5T4 9-mer peptide 88 LVELILNHI (peptide)
peptide: LVELILNHI
notes: also called Peptide No 88
With B37 the t½ half life [18] was 0.3 h.

B38: 5T4 9-mer peptide 102 LLAGRALQG (peptide)
peptide: LLAGRALQG
notes: also called Peptide No 102
B38 gave a t½ half life [25] of 1.4 h.

B39: 5T4 9-mer peptide 100 (peptide)
peptide: VVAALLAGR
In the case of B39, the iScore [16] is reported as 0.125.

B40: 5T4 9-mer peptide 48 NLFLTGNQL (peptide)
peptide: NLFLTGNQL
notes: also called Peptide No 48
B40 gave a t½ half life [19] of 0.5 h.
